According to US20060235215A1 (published 2006):

B1: Novel protein PN30844, prey clone aa 1-64 (other)
chain: VAVRKKETRDGAMQTMPSRVQQGAADFEETLFVRCHLYCSGGAGTGKPLRFEPRPFLLSAVAVE
notes: prey; AD fusion; input trait library
B2: Novel protein PN30857, prey clone aa 1-148 (other)
chain: QDTRPLQAQRRRHGGGPQDRQREPSQGDFLRRQREEHPGGEEDRAPHGAGGHAAAGEGRGPRAGEHPQHQGGAAGAVGGGREGGGRAHLLRPRRHRDIGDRVGHTYCLSRLRRIAQNEQPSIHPCPSLAGQVIIRWEFRIGRDNNTFQ
notes: as for B1
B3: Novel protein PN29983, prey clone aa 1-131 (other)
chain: GVETVVTDTAGNKVVVTGAADAAELKERIEARTKKAVQIVSAGAGPPPKKDKEEKKDKDKKGGGDDKKAEKEKGGGGGDKKAEKEKGGGDKPKEEKKAKEPKEETVTLKIRLHCEGCIDRIKRRICKIKGG
notes: as for B1
B4: Pectinesterase-like PN30845, prey clone aa 1-64 (other)
chain: GDQGRTYLFRVSNVGVKTSVNVRIQGHSLRLVEVEGTHPVQNVYDSLDVHVGQSVAFLVTLDKA
notes: as for B1
B5: Isp-4 like PN30870, prey clone aa 1-446 (other)
chain: GEEDEHPHEGRAGVERRRQHVVVLLPPPLAVLEHEVVEDGARDEPARDVGRRRRRHPGEPVGDDGDVDERDPLLLRERPAEQPHRHGQHGAGEEQPHQVAVQAVAAEQPGGADEPPDHRRVERDPVLGARPRAVRVQRLHVADVVDAAQHPPRHRQVHHAGDHRAHQLRRVHAPRRDLHVVPQLEVREERQRVHRADPPVDLEQQVRDRLPRQRVPDHELRDDVVPRLLVGGGLDDADGEGDDEGEGEGEEHPPPRQLHLLPVHERHDQRHGDAADEQHEEPPLRHLLVPPHQLRVHVHLRRRGAHRRPALPPDVPAVEQRHVHDRRREPQEPGPDGDGEQRAQVQLPVALVRRHVEVELPREHLGGVVLLPGRREQLVGEDWELPRVERVELPVAERHDEVDEHDEARGGVGDGRPRRHQRAPVVRRDAGPVQCEGADAEAVVAG
notes: as for B1
B6: Ubiquitin specific protease-like PN30843, prey clone aa 164-221 (other)
chain: RALQNFTAEELLDGGEKQYQCQRCRKKVVAKKKFTIDKAPYVLTIHLKRFSPFNPREK
notes: as for B1
B7: NAD(P) binding domain protein PN30868, prey clone aa 167-336 (other)
chain: YNELAQLRAGKSSKSKLLIAKFKSPKSLNGWEVDQGSYFPNTFASRFDEGIDASFDFSEAGQAVFSGFVFTRGGYVEISKRLSLPLGSTLDRYDGLLFSVGGNGRSYVVILETGPLADTSQSKKYFARMTTKVGFCRVRVPFSAFRPVNPQDPPLDPFLVHTLTIRFEPK
notes: as for B1
B8: Hypothetical Protein ORF020300-2233.2, Putative PP2A Regulatory Subunit, Similar to OsCAA90866, prey clone aa 93-387 (other)
chain: LLVPYYLGEMTERVAQEDRIPVLKASQDHLKEFISICEALELISEDELELSRQKQPDTMANRRAQKAARFKRQKAAETKLLEIKERKERRRRSLRAAALSAPIEAGEEDAFEDDGEEEREAWLATISLALCKAFDLLDMLKKEEEMLLAVKERQAKDGNAFAREMLDERTKKAEAWHHNAANRAPYSKPADPITCATFAQDVIEGRASVSQAHEHKHQPLIFGPASLVGGGLTSERERMAAQVFQPSYRLPTMSIEEAGLREMKMMEKWQERTAKMIQESNSAWHKDGSRSAQED
notes: prey; AD fusion; input trait library; also called OsORF020300-2233.2
B9: O. sativa Putative Proline-Rich Protein AAK63900, prey clone aa 122-224 (other)
chain: AAVAGKTHYRSALCASVTICGPIKKKIIDHFHKKPVPPKPEPKPEPPKPKPEPEHPFLDHIHKKEKHFFDHFHKKPVPPKPEPKPEPKPQPAPEYHNPSPPAN
notes: prey; AD fusion; input trait library; also called OsAAK63900; PN23266
B10: Novel Protein PN29119, Fragment, prey clone aa 1-155 (printed -53 to 155) (other)
chain: MEFEADGARWPEPRGDAAGAPPLERGDAPSPRFDSSRALRLLRELGSNVTEDLVVLMPNLLSFLKHDDPVVVNQSIASGTNLFAAVLEEMTLQINKCGRVDAWLEEMWAWTKQFKDAVHNLIHESVPVATKLFAVKFIETWILCFAPQSKSDRMQ
notes: prey; AD fusion; output trait library; clone also holds a portion of the 5' untranslated region; also called OsPN29119
B11: Novel Protein PN29117, prey clone aa 1-151 (printed -7-151) (other)
chain: MLVQRRDGDTGPAVRLRVSHGASFRDVAVPAHSTFGELKGVLTQATGVEPERQRLFFRGKEKSDNEFLHTAGVKDGAKLLLLEKPAPANVEQRAEPVIMDESMMKACEAVGRVRAEVDRLSAKVCDLEKSVFAGRKIEDKDFVVLTELLMM
notes: prey; AD fusion; output trait library; clone also holds a small portion (-7 to 0) of the 5' untranslated region; also called OsPN29117; BAG-like protein
B12: Novel Protein PN29116, Fragment, prey clone aa 1-169 (other)
chain: GRKPVAAQHYNKGDKDGTSTGSRCTSVAWVPEREGIFVVSHSDGNLYVYDKCKDGNTECTFPAIKDPAQLMISHAKSSKSNPIARWHVCQGSINAISFSPDGAYLATVGRDGYLRVFDFSKEQLIFGGKSYYGALLCCTWSSDGKYLLTGGEDDLVQVWSMDDRKIVAW
notes: prey; AD fusion; output trait library; also called OsPN29116
B13: O. sativa Chilling-Inducible Protein CAA90866, prey clone aa 1-126 (other)
chain: MVEVEEVSNKMQVQMRLHPAAAAEEEDADLPLPALFDKASHLHSLASSSSLDQEGIRKGVDLLRRCDEMVSKVGLFSSNETKDDISTANLKYLLVPYYLGEMTERVAQEDRIPVLKASQDHLKEFI
notes: prey; AD fusion; output trait library; also called OsCAA90866; PN20311
B14: Hypothetical Protein ORF020300-2233.2, Putative PP2A Regulatory Subunit, Similar to OsCAA90866, prey clone aa 1-190 (other)
chain: MVEVEEVSNKMQAQMRLHPAAAAEEEDADLPLPALFDKASHLHSLASSSSLDQEGIRKGVDLLRRCDEMVSKLGLFSSNETKDDVSTANLKYLLVPYYLGEMTERVAQEDRIPVLKASQDHLKEFISICEALELISEDELELSRQKQPDTMANRRAQKAARFKRQKAAETKLLEIKERKERRRRSLRAAA
notes: prey; AD fusion; output trait library; three clones; also called OsORF020300-2233.2
B15: O. sativa Putative Pyrrolidone Carboxyl Peptidase, prey clone aa 92-222 (other)
chain: FGVNSGTTRFALENQAINEATFRCPDELGWKPQRAPIVSSDGSISNLRKTTVPVNEVNKSLQQMGFDVAPSDDAGRFVCNYVYYQSLRFAEQRGIKSLFVHFPLFTTISEEVQMNFVATLLEVLASQNYAQ
notes: prey; AD fusion; input trait library; two clones; also called OsAAG46136; PN23186
B16: Hypothetical Protein ORF020300-2233.2, Putative PP2A Regulatory Subunit, Similar to OsCAA90866, prey clone aa 1-206 (other)
chain: MVEVEEVSNKMQAQMRLHPAAAAEEEDADLPLPALFDKASHLHSLASSSSLDQEGIRKGVDLLRRCDEMVSKLGLFSSNETKDDVSTANLKYLLVPYYLGEMTERVAQEDRIPVLKASQDHLKEFISICEALELISEDELELSRQKQPDTMANRRAQKAARFKRQKAAETKLLEIKERKERRRRSLRAAALSAPIEAGEEDAFEDD
notes: as for B14
B17: Novel Protein PN23225, Similar to Triticum aestivum Initiation Factor (iso)4f p82 Subunit, prey clone aa 639-792 (other)
chain: FGIRILDEAQQCIEELQCPEYYSEIVKEAINLALDKGPNFIDPLVRLLEHLHTKKIFKTEDLKTGCLLYAALLEDIGIDLPLAPALFGEVVARLSLSCSLSFEVVEEILKAVEDTYFRKGIFDAVMKTMGGNSSGQAILSSHAVVIDACNKLLK
notes: prey; AD fusion; input trait library; also called OsPN23225
B18: Novel Protein PN29883, Fragment, prey clone aa 58-175 (other)
chain: YGQLKAAQPFFLLAGPNVIESEEHVLKMAKHIKGITTKLGLPLVFKSSFDKANRTSSKSFRGPGLEEGLKILEKVKATYDIPVVTDVHESHQCEAAGRVADIIQIPAFFCRQTDLLVA
notes: prey; AD fusion; output trait library; also called OsPN29883
B19: Novel Protein PN23045, prey clone aa 240-287 (other)
chain: ILSKLVQAKELLKEYVEREKKKREERSETPKSNEAVTKFDGSLNSMRH
notes: prey; AD fusion; input trait library; two clones; also called OsPN23045

These binders were tested against T1, Elicitor responsive protein, bait fragment aa 50-145 (Oryza sativa, UniProt Q0JBH9 50-144) (assay: yeast two-hybrid).
T1 construct: bait; also called OsERP; PN20696
T1 sequence: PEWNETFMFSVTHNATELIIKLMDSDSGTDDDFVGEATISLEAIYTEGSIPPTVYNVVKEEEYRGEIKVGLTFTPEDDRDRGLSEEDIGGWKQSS

Binding result, binds:
B1
B2
B3
B4
B5
SSGTTSRPTASRTQQTKGRLTVTISLKAYSPGRTRSG (other, prey; AD fusion; input trait library) [Novel Protein PN29984, prey clone aa 5-41]
B6
APSSSSGTTSRPTASRTQQTKGRLTVTISLKAYSPGRT (other, prey; AD fusion; input trait library) [Novel Protein PN29984, prey clone aa 1-38]
B7

The binders below were run against T2, O. sativa Serine/Threonine Protein Phosphatase PP2A-2, Catalytic Subunit, bait fragment aa 1-308 (Oryza sativa, UniProt A2XN40 1-307) (assay: yeast two-hybrid).
T2 construct: bait; also called OsPP2A-2; PN20254
T2 sequence (A2XN40 whole entry, the tested form may be a part): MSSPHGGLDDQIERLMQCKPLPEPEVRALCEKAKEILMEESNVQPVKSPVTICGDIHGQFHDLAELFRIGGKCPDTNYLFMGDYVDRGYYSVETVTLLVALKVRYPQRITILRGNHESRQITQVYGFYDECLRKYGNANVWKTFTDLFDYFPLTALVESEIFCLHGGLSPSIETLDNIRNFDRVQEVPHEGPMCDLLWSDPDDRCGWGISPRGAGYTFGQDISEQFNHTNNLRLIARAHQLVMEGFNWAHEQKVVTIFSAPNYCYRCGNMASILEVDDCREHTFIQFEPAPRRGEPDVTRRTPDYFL

Binding result, binds:
B8
B9

Each binder was assayed against T3, O. sativa Cellulose Synthase Catalytic Subunit, RSW1-Like, bait fragment aa 316-583 (Oryza sativa, UniProt A2Y0X2 316-583) (assay: yeast two-hybrid).
T3 construct: bait; also called OsCS; PN19707
T3 sequence: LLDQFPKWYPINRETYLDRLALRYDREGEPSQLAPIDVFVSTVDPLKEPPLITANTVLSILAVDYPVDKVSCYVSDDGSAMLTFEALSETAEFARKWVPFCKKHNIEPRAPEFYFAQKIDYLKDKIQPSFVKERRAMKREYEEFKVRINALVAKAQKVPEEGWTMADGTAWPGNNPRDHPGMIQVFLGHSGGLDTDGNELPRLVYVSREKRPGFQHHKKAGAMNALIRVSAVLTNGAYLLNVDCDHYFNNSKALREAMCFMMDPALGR
Method: Yeast carrying the target gene construct was combined with yeast carrying the activation domain library. The two yeast strains mated to form diploid yeast and were plated on media that selected for expression of one or more Ga14p-responsive reporter genes. Thus, both hybrid proteins (i.e., the target “bait” protein and the activation domain “prey” protein) were expressed in a yeast reporter strain where an interaction between the test proteins results in transcription of the reporter genes […]. Colonies that arose after incubation were selected for further characterization. The activation domain plasmid was isolated from each colony obtained in the two-hybrid search. The sequence of the insert in this construct was obtained by sequence analysis (e.g., Sanger's dideoxy nucleotide chain termination method; see Ausubel et al., 1988, including updates up to 2002). Thus, the identity of positives obtained from these searches was determined by sequence analysis against proprietary and public (e.g., GENBANK®) nucleic acid and protein databases.
A second bait, namely O. sativa Cellulose Synthase Catalytic Subunit, RSW1-Like (OSCS; PN19707; GENBANK® Accession No. AF030052), was also used.

Binding result, binds:
B10
B11
B12

Biological target: T4, O. sativa Chilling-Inducible Protein CAA90866, bait clone aa 100-250 (Oryza sativa)
T4 construct: bait; also called OsCAA90866; PN20311
T4 chain: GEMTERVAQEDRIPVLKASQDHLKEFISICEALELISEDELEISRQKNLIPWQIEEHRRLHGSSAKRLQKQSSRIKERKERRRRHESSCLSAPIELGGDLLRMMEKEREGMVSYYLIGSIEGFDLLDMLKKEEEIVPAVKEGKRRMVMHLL
Assay: yeast two-hybrid

Binding result, binds:
B13
B14
B15
B16
B17
B18
B19
